Values of other authors, collected in PMC9369280.

Legend:
Experiment in all cases: SPR
FGFR2 (Homo sapiens) = FGFR2 (Homo sapiens) (UniProt P21802)
FGF-1 (Homo sapiens) = FGF-1 (Homo sapiens) (UniProt P05230)
FGF-2 (Homo sapiens) = FGF-2 (Homo sapiens) (UniProt P09038)
UniProt P09038, sequence (P09038 143-288): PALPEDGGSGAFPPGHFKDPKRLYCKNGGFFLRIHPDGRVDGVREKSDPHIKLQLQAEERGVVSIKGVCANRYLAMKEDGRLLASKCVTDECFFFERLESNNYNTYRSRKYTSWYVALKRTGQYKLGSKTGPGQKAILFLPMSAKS

UniProt P05230, sequence (P05230 16-155): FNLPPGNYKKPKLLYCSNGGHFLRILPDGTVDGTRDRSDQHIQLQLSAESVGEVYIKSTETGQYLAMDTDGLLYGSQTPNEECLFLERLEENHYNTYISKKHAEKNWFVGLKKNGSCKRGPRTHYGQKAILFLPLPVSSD
UniProt P21802, sequence (P21802 22-377): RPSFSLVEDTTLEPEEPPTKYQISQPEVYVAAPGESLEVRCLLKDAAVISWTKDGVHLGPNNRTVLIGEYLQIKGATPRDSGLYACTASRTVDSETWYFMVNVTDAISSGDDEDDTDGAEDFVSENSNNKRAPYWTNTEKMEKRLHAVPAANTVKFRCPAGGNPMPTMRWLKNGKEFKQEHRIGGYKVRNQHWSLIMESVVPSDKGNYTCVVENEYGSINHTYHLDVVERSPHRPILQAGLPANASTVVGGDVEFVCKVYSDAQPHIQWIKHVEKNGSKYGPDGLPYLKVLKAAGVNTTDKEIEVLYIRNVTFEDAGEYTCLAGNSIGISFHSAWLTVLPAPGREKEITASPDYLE

Substance: CCN2 (from UniProt P29279)
- Kd (FGFR2 (Homo sapiens)): 7.91 nM
- Kd (FGF-1 (Homo sapiens)): 3.98 nM
- Kd (FGF-2 (Homo sapiens)): 5.5 nM
